Article PMC11079029, “Intramolecular autoinhibition regulates the selectivity of PRPF40A tandem WW domains for proline-rich motifs” (Nature Communications, 2024)

Key:
Assay in all cases: ITC; PRPF40A construct (WW12, N-ext-WW12 or its mutant) in the cell, GB1-SF1 or GB1-SF3A1 construct in the syringe (as shown in Supplementary Figures 16 and 21); 25 °C, 20 mM sodium phosphate pH 6.5, 100 mM NaCl; one-site binding model; at least duplicates; affinities apparent
Conditions in all cases: both partners purified
[1] = molecular target: T1, GB1-SF1 Pro BC (residues 468-594) (UniProt Q15637 468-594)
T1 construct: splicing factor 1 (SF1), residues 468-594; His6-GB1-TEV site cassette of the pET24 vector, not cleaved; also called SF1 BC; source: E. coli BL21(DE3), purified (Ni-NTA, SEC); not shown: GB1, N-terminal, kept
T1 sequence (looked up): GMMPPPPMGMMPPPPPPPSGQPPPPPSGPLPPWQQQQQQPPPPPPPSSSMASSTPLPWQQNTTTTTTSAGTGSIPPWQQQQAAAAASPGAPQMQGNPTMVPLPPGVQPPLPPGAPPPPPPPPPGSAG

[2] = molecular target: T2, GB1-SF1 Pro ABCD (residues 410-639) (UniProt Q15637 410-639)
T2 construct: splicing factor 1 (SF1), residues 410-639, the complete proline-rich C-terminal region; His6-GB1-TEV site cassette of the pET24 vector, not cleaved; source: E. coli BL21(DE3), purified (Ni-NTA, SEC); not shown: GB1, N-terminal, kept
T2 sequence (looked up): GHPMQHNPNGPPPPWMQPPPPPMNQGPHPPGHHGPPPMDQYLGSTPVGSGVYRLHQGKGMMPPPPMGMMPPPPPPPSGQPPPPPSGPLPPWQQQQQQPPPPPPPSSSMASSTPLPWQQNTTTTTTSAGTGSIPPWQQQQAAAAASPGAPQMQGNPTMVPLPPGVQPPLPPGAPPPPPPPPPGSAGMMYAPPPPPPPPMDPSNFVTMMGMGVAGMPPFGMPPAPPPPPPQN

[3] = molecular target: T3, GB1-SF1 Pro BCD (residues 468-639) (UniProt Q15637 468-639)
T3 construct: splicing factor 1 (SF1), residues 468-639; His6-GB1-TEV site cassette of the pET24 vector, not cleaved; source: E. coli BL21(DE3), purified (Ni-NTA, SEC); not shown: GB1, N-terminal, kept
T3 sequence (looked up): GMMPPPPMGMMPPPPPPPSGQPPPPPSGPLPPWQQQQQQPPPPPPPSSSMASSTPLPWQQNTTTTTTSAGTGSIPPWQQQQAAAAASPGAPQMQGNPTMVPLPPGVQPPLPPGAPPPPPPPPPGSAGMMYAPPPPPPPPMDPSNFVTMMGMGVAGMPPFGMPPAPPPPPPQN

[4] = molecular target: T4, GB1-SF3A1 C-ter Pro (residues 552-683) (UniProt Q15459 552-683)
T4 construct: His6-GB1-TEV site cassette of the pET24 vector, not cleaved; source: E. coli BL21(DE3), purified (Ni-NTA, SEC); not shown: GB1, N-terminal, kept
T4 sequence (looked up): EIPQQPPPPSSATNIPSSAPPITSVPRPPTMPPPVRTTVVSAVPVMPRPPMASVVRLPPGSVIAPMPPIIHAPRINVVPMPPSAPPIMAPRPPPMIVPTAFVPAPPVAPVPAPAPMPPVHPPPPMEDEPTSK

[5] = molecular target: T5, GB1-SF1 Pro CD (residues 539-639) (UniProt Q15637 539-639)
T5 construct: splicing factor 1 (SF1), residues 539-639; His6-GB1-TEV site cassette of the pET24 vector, not cleaved; source: E. coli BL21(DE3), purified (Ni-NTA, SEC); not shown: GB1, N-terminal, kept
T5 sequence (looked up): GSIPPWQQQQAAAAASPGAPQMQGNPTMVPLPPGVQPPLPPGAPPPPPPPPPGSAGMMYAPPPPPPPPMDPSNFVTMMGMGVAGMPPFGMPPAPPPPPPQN

B1: PRPF40A WW12 (tandem WW domains, residues 141-236) (domain or fragment, human, UniProt O75400 141-236, looked up)
chain: GAKSMWTEHKSPDGRTYYYNTETKQSTWEKPDDLKTPAEQLLSKCPWKEYKSDSGKPYYYNSQTKESRWAKPKELEDLEGYQNTIVAGSLITKSNL
notes: A few vector residues probably remain at the N-terminus after TEV cleavage (pETM11, NcoI site); 15N-labelled in the NMR experiments; also called PRPF40A WW tandem; WW12 wt; source: E. coli BL21(DE3), purified (Ni-NTA, TEV digestion, reverse Ni-NTA, SEC); not shown: His6, N-terminal, cleaved
Q: What does the source list for B1?
A: Kd [1]: 6.83 ± 2.33 µM; Kd [2]: 4.91 ± 0.51 µM; Kd [3]: 3.65 ± 0.71 µM; Kd [4]: 19.3 ± 4.5 µM; Kd [5]: 3.8 ± 0.69 µM
